The assay addresses ω-fragment of β-galactosidase [β-galactosidase: P00722]. The assay can be described thus: cell-based or functional assay.
MJ1267 (LivF)/α-fragment fusion protein, sequence (Q58663 1-257, tags or fused parts left off): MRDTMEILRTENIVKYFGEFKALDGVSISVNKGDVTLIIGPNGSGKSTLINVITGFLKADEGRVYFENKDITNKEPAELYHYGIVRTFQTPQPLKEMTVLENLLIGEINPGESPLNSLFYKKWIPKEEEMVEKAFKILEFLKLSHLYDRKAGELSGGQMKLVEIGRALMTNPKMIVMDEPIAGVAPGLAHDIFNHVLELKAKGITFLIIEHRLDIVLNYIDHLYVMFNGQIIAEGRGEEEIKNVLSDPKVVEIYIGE
Take “Aβ (1-42) F19P/α-fragment fusion protein (from UniProt P05067 672-713; P00722 7-58)”: the β-gal activity, against the wild-type Aβ/α fusion worked out at 3 fold. Regarding “CFTR NBD1-B/α-fragment fusion protein (from UniProt P13569 404-644; P00722 7-58)”, the β-gal Activity (units/cell), ONPG hydrolysis in cell lysates worked out at 5 units/cell. The same measure, in the same setting: in the case of “CFTR NBD1-D/α-fragment fusion protein (from UniProt P13569 419-655; P00722 7-58)” it was 6 units/cell. Same read-out and setting: as for “GST/α-fragment fusion protein (from UniProt P08515 1-218; P00722 7-58)”, the figure is 134 units/cell; as for “MBP G32D/I33P/α-fragment fusion protein (from UniProt P0AEX9 27-392; P00722 7-58)”, 14 units/cell; as for “MBP G32D/α-fragment fusion protein (from UniProt P0AEX9 27-392; P00722 7-58)”, 94 units/cell. On the same count and under the same terms, as for “MBP I33P/α-fragment fusion protein (from UniProt P0AEX9 27-392; P00722 7-58)”, the figure is 46 units/cell.

On to “MBP wild-type/α-fragment fusion protein (from UniProt P0AEX9 27-392; P00722 7-58)”, for which the β-gal Activity (units/cell), ONPG hydrolysis in cell lysates came out at 102 units/cell. The same measure, in the same setting: as for “MJ1267 (LivF)/α-fragment fusion protein (from UniProt Q58663 1-257; P00722 7-58)”, the figure is 12 units/cell; as for “TRx/α-fragment fusion protein (from UniProt P0AA25 1-109; P00722 7-58)”, 159 units/cell.

Source of the values: patent US7455978.
